Laboratory results reported in PMC9169620, “Helical self-assembly of a mucin segment suggests an evolutionary origin for von Willebrand factor tubules” (Proceedings of the National Academy of Sciences of the …, 2022).

How the values were obtained:
[1] = target: the molecule itself; assay: dynamic light scattering; MUC2 D1D2D3 at 0.3 mg/mL in 50 mM MES at varying pH, 150 mM NaCl, 37 °C; large species at pH 5.8 and below
[2] = target: the molecule itself; assay: negative stain TEM; MUC2 D1D2D3 at 0.3 mg/mL in 50 mM MES (pH 5.4), 225 mM NaCl, 10 mM CaCl2, 37 °C for 24 h; diluted to 0.03 mg/mL, stained with 2% uranyl acetate

B1: MUC2 D1D2D3 (residues 21 to 1259 followed by a His6 tag) (domain or fragment, human, UniProt Q02817 21-1259, looked up)
chain: SELQTEGRTRNHGHNVCSTWGNFHYKTFDGDVFRFPGLCDYNFASDCRGSYKEFAVHLKRGPGQAEAPAGVESILLTIKDDTIYLTRHLAVLNGAVVSTPHYSPGLLIEKSDAYTKVYSRAGLTLMWNREDALMLELDTKFRNHTCGLCGDYNGLQSYSEFLSDGVLFSPLEFGNMQKINQPDVVCEDPEEEVAPASCSEHRAECERLLTAEAFADCQDLVPLEPYLRACQQDRCRCPGGDTCVCSTVAEFSRQCSHAGGRPGNWRTATLCPKTCPGNLVYLESGSPCMDTCSHLEVSSLCEEHRMDGCFCPEGTVYDDIGDSGCVPVSQCHCRLHGHLYTPGQEITNDCEQCVCNAGRWVCKDLPCPGTCALEGGSHITTFDGKTYTFHGDCYYVLAKGDHNDSYALLGELAPCGSTDKQTCLKTVVLLADKKKNVVVFKSDGSVLLNELQVNLPHVTASFSVFRPSSYHIMVSMAIGVRLQVQLAPVMQLFVTLDQASQGQVQGLCGNFNGLEGDDFKTASGLVEATGAGFANTWKAQSSCHDKLDWLDDPCSLNIESANYAEHWCSLLKKTETPFGRCHSAVDPAEYYKRCKYDTCNCQNNEDCLCAALSSYARACTAKGVMLWGWREHVCNKDVGSCPNSQVFLYNLTTCQQTCRSLSEADSHCLEGFAPVDGCGCPDHTFLDEKGRCVPLAKCSCYHRGLYLEAGDVVVRQEERCVCRDGRLHCRQIRLIGQSCTAPKIHMDCSNLTALATSKPRALSCQTLAAGYYHTECVSGCVCPDGLMDDGRGGCVVEKECPCVHNNDLYSSGAKIKVDCNTCTCKRGRWVCTQAVCHGTCSIYGSGHYITFDGKYYDFDGHCSYVAVQDYCGQNSSLGSFSIITENVPCGTTGVTCSKAIKIFMGRTELKLEDKHRVVIQRDEGHHVAYTTREVGQYLVVESSTGIIVIWDKRTTVFIKLAPSYKGTVCGLCGNFDHRSNNDFTTRDHMVVSSELDFGNSWKEAPTCPDVSTNPEPCSLNPHRRSWAEKQCSILKSSVFSICHSKVDPKPFYEACVHDSCSCDTGGDCECFCSAVASYAQECTKEGACVFWRTPDLCPIFCDYYNPPHECEWHYEPCGNRSFETCRTINGIHSNISVSYLEGCYPRCPKDRPIYEEDLKKCVTADKCGCYVEDTHYPPGASVPTEETCKSCVCTNSSQVVCRPEEGKILNQTQDGAFCYWEICGPNGTVEKHFNICSIT
notes: Mucin-2 (MUC2), human intestinal gel-forming mucin, amino-terminal D1D2D3 region, residues 21 to 1259, without CysD1; The dimers assemble into two-start helical tubules at acidic pH; also called D1D2D3 fragment; MUC2 amino-terminal fragment spanning the D1D2D3 region but lacking CysD1; source: HEK 293F, transient transfection, purified from culture medium (Ni-NTA); not shown: His6, C-terminal, …
binding result [1]: binds

B2: MUC2 D1D2D3, with an amino-terminal His6 tag and TEV protease cleavage site and lacking a carboxy-terminal His6 (domain or fragment, human, UniProt Q02817 21-1259, looked up)
chain: SELQTEGRTRNHGHNVCSTWGNFHYKTFDGDVFRFPGLCDYNFASDCRGSYKEFAVHLKRGPGQAEAPAGVESILLTIKDDTIYLTRHLAVLNGAVVSTPHYSPGLLIEKSDAYTKVYSRAGLTLMWNREDALMLELDTKFRNHTCGLCGDYNGLQSYSEFLSDGVLFSPLEFGNMQKINQPDVVCEDPEEEVAPASCSEHRAECERLLTAEAFADCQDLVPLEPYLRACQQDRCRCPGGDTCVCSTVAEFSRQCSHAGGRPGNWRTATLCPKTCPGNLVYLESGSPCMDTCSHLEVSSLCEEHRMDGCFCPEGTVYDDIGDSGCVPVSQCHCRLHGHLYTPGQEITNDCEQCVCNAGRWVCKDLPCPGTCALEGGSHITTFDGKTYTFHGDCYYVLAKGDHNDSYALLGELAPCGSTDKQTCLKTVVLLADKKKNVVVFKSDGSVLLNELQVNLPHVTASFSVFRPSSYHIMVSMAIGVRLQVQLAPVMQLFVTLDQASQGQVQGLCGNFNGLEGDDFKTASGLVEATGAGFANTWKAQSSCHDKLDWLDDPCSLNIESANYAEHWCSLLKKTETPFGRCHSAVDPAEYYKRCKYDTCNCQNNEDCLCAALSSYARACTAKGVMLWGWREHVCNKDVGSCPNSQVFLYNLTTCQQTCRSLSEADSHCLEGFAPVDGCGCPDHTFLDEKGRCVPLAKCSCYHRGLYLEAGDVVVRQEERCVCRDGRLHCRQIRLIGQSCTAPKIHMDCSNLTALATSKPRALSCQTLAAGYYHTECVSGCVCPDGLMDDGRGGCVVEKECPCVHNNDLYSSGAKIKVDCNTCTCKRGRWVCTQAVCHGTCSIYGSGHYITFDGKYYDFDGHCSYVAVQDYCGQNSSLGSFSIITENVPCGTTGVTCSKAIKIFMGRTELKLEDKHRVVIQRDEGHHVAYTTREVGQYLVVESSTGIIVIWDKRTTVFIKLAPSYKGTVCGLCGNFDHRSNNDFTTRDHMVVSSELDFGNSWKEAPTCPDVSTNPEPCSLNPHRRSWAEKQCSILKSSVFSICHSKVDPKPFYEACVHDSCSCDTGGDCECFCSAVASYAQECTKEGACVFWRTPDLCPIFCDYYNPPHECEWHYEPCGNRSFETCRTINGIHSNISVSYLEGCYPRCPKDRPIYEEDLKKCVTADKCGCYVEDTHYPPGASVPTEETCKSCVCTNSSQVVCRPEEGKILNQTQDGAFCYWEICGPNGTVEKHFNICSIT
notes: Mucin-2 (MUC2), human, D1D2D3 region; Made by restriction-free cloning from the plasmid of m1; also called D1D2D3 fragment produced with an amino-terminal His6 tag that was removed proteolytically; source: HEK 293F, transient transfection, purified from culture medium (Ni-NTA); tag removed proteolytically during purification; not shown: His6, N-terminal, cleaved
binding result [2]: binds
